Test results reported in patent US6699683B1, “Active site of human gamma glutamy hydrolase” (Health Research Incorporated, priority 1996, dated 2004).
Where a chain is given by its changes, count along the chain named. Names and notes keep the numbering of the source.

B1: C110A: hGH variant with cysteine 110 replaced by alanine (protein)
chain: RPHGDTAKKPIIGILMQKCRNKVMKNYGRYYIAASYVKYLESAGARVVPVRLDLTEKDYEILFKSINGILFPGGSVDLRRSDYAKVAKIFYNLSIQSFDDGDYFPVWGTALGFEELSLLISGECLLTATDTVDVAMPLNFTGGQLHSRMFQNFPTELLLSLAVEPLTANFHKWSLSVKNFTMNEKLKKFFNVLTTNTDGKIEFISTMEGYKYPVYGVQWHPEKAPYEWKNLDGISHAPNAVNPAFYLAEFFVNEARKKNHHFKSESEEEKALIYQFSPIYTGNISSFQQCYIFD
B2: His171Ala: hGH mutant with His 171 changed to Ala (protein)
chain: B1 chain with A110C, H171A

Tests used:
Format in all cases: biochemical
[1] = tested on: human gamma glutamyl hydrolase (hGH); test: hGH activity assay with 4-NH2-10-CH3PteGlu2 as substrate (Km, Vmax, specific activity) of E. coli-expressed purified proteins
Method: (§1) Mutant plasmids were used to transform E. colistrain BL21(DE3)pLysS to kanamycin resistance. Cultures (20 ml) were grown for 16 hours at 37° C., 225 rpm in tryptone-phosphate broth (Moore et al. 1993), containing 30 μg/ml kanamycin and 34 μg/ml chloramphenicol. An aliquot (6 ml) of this culture was used to inoculate 500 ml of the same medium. Cultures were incubated at 27° C., 225 rpm until the OD600nm was 0.5-0.6. Isopropyl β-D-thiogalactoside (IPTG) was added to a final concentration of 1 mM and cultures were incubated for a further 3 hours. Cells were harvested by centrifugation and stored at −80° C. Cells from 1 liter of broth were resuspended in 50 ml of 50 mM Tris/HCl pH 7.5 buffer containing 500 mM NaCl and Complete protease inhibitor cocktail (Boehringer Mannheim, Indianapolis, Ind.). The mixture was sonicated and clarified by centrifugation at 20,000 g for 30 minutes at 4° C. A 20-60% ammonium sulfate precipitate was resuspended in 50 mM sodium acetate, pH 5.8, 1 mM octyl-β-D-glucoside (OBG) and 5% glycerol (buffer A). After dialysis at 4° C. against buffer A and clarification by centrifugation at 30,000 g, 4° C. for 120 minutes, the dialysate was applied in two aliquots to a Protein Pak SP colummn (1.0 cm×10 cm, Waters Division of Millipore Corp., Milford, Mass.) equilibrated in buffer A. The protein was eluted (1 ml/min) with a linear gradient in buffer A of 0 to 1M NaCl over 60 minutes. Fractions were assayed for hGH activity or for hGH protein by Western blot. Fractions containing hGH were pooled and frozen at −80° C. Wildtype hGH and the C19A, C110A, and C290A mutants eluted as two peaks whereas the C124A mutant eluted as a single peak coincident with the first peak for the other hGH proteins. […] There was 8-10 times more hGH protein in peak 1 than in peak 2. A statistically significant amount (40-82%) of enzyme activity of proteins purified on the SP column was lost when stored either at 4° C. or at −80° C. Thawed aliquots of peak 1 were incubated for 2 hours at 4° C. with 2 ml of pHMB agarose (0.8 μmole/ml agarose) (Sigma Chemical, St. Louis, Mo.) equilibrated in 50 mM sodium acetate pH 5.8, 20 mM OBG, 500 mM NaCl (buffer B). The matrix was poured into a column (0.75 cm×4.5 cm) and washed with buffer B. hGH protein was eluted with buffer B containing additionally 10 mM dithiothreitol and 50 mM β-mercaptoethanol. EDTA (1 mM final) was added to each fraction to inhibit remaining proteases. Fractions containing hGH were pooled and stored at −80° C.
(§2) Km and Vmax activities were measured using variable 4-NH2-10-CH3PteGlu2 substrate concentrations. Specific activities were measured using 200 μM 4-NH2-10-CH3PteGlu2 for 5 minutes.

[2] = biological target: T1, human gamma glutamyl hydrolase (hGH) (Homo sapiens, UniProt Q92820, C134A); test: as above; conditions: assayed with either 4-NH2-10-CH3PteGlu2 or the better substrate 4-NH2-10-CH3PteGlu
T1 construct: A cDNA encoding the 294 amino acid mature form of hGH protein with an N-terminal methionine preceding the first arginine residue; added N-terminal methionine (start codon) (N); made in house; host or cells: E. coli BL21(DE3)pLysS, pET-24a (pET-hGH)
T1 sequence (Q92820 with tags, fused parts or gaps C134A): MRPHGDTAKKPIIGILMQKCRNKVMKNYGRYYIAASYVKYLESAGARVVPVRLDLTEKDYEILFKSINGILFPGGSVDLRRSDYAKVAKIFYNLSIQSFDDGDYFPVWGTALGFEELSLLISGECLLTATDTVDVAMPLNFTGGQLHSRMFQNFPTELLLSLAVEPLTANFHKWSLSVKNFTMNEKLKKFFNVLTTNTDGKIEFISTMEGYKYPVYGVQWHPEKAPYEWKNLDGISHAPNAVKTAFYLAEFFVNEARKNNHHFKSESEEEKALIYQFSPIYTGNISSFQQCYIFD
Method: as §1, §2

[3] = tested on: human gamma glutamyl hydrolase (hGH); test: Activity of baculovirus-expressed hGH mutants on methotrexate polyglutamates; conditions: mutants expressed in the baculovirus system
Source text: This model for the active site of hGH has been tested by preparing the Cys110Ala, His220Ala, Glu222Ala, His171Ala, and His171Asn mutants of hGH. The mutants were expressed in the baculovirus system used for active hGH to facilitate the rapid expression and purification of the proteins. The mutant proteins were characterized for activity on methotrexate polyglutamates. […] The role of His171 in hGH has been examined by preparing the mutant His171Ala and the more conservative mutation His171Asn.

[4] = biological target: T2, human gamma glutamyl hydrolase (hGH) (Homo sapiens, UniProt Q92820, C134A); test: hGH activity in chromatography fractions measured with 4-NH2-10-CH3PteGlu5; conditions: substrate 4-NH2-10-CH3PteGlu5
T2 construct: A cDNA encoding the 294 amino acid mature form of hGH protein with an N-terminal methionine preceding the first arginine residue; added N-terminal methionine (start codon) (N); made in house; host or cells: E. coli BL21(DE3)pLysS, pET-24a (pET-hGH)
T2 sequence (Q92820 25-318 C134A): B1 chain with N242K, P243T, K258N
Method: Mutant plasmids were used to transform E. colistrain BL21(DE3)pLysS to kanamycin resistance. Cultures (20 ml) were grown for 16 hours at 37° C., 225 rpm in tryptone-phosphate broth (Moore et al. 1993), containing 30 μg/ml kanamycin and 34 μg/ml chloramphenicol. An aliquot (6 ml) of this culture was used to inoculate 500 ml of the same medium. Cultures were incubated at 27° C., 225 rpm until the OD600nm was 0.5-0.6. Isopropyl β-D-thiogalactoside (IPTG) was added to a final concentration of 1 mM and cultures were incubated for a further 3 hours. Cells were harvested by centrifugation and stored at −80° C. Cells from 1 liter of broth were resuspended in 50 ml of 50 mM Tris/HCl pH 7.5 buffer containing 500 mM NaCl and Complete protease inhibitor cocktail (Boehringer Mannheim, Indianapolis, Ind.). The mixture was sonicated and clarified by centrifugation at 20,000 g for 30 minutes at 4° C. A 20-60% ammonium sulfate precipitate was resuspended in 50 mM sodium acetate, pH 5.8, 1 mM octyl-β-D-glucoside (OBG) and 5% glycerol (buffer A). […]

[5] = biological target: T3, human gamma glutamyl hydrolase (hGH) (Homo sapiens, UniProt Q92820, H195A); test: Activity of His 171 to Ala hGH mutant from E. coli expression system
T3 construct: A cDNA encoding the 294 amino acid mature form of hGH protein with an N-terminal methionine preceding the first arginine residue; added N-terminal methionine (start codon) (N); made in house; host or cells: E. coli
T3 sequence (Q92820 25-318 H195A): B1 chain with A110C, H171A, N242K, P243T, K258N
Source text: CPS contains two domains and catalyzes the synthesis of carbamoyl phosphate from bicarbonate, glutamine, and two molecules of MgATP. The smaller subunit is the site of glutamine hydrolysis to produce ammonia for deliver to the larger subunit. In agreement with the site directed mutagenesis study described above, the model predicts that Cys110 in hGH is analogous to Cys 269 in CPS, which functions as the active site nucleophile attacking the γ-carbonyl of glutamine to form a glutamyl thioester intermediate (Thoden et al. 1998). The model also predicts that His 220 and Glu 222 in hGH are the other two amino acids in the catalytic triad, corresponding to His 353 and Glu 355 in CPS. His 220 and Glu 222 are conserved in the human, rat and mouse glutamyl hydrolase sequences. In the proposed model for hGH, His 220 would activate Cys 110 and Glu 222 would stabilize the resulting positively charged imidizolium cation. […] His 312 in CPS points away from the catalytic triad and is involved in substrate binding not catalysis. When His 312 in CPS was conservatively mutated to Asn, the Km for the substrate was increased 200-fold (Miran et al. 1991). […] Further reinforcing evidence for this alignment model was obtained by running the Pfam HMM search program (Sonnhammer et al. 1998). The Pfam result has an E-value of 0.13 with the GATase model of class-I glutamine amidotransferases. […]

Molecule	Specific activity (nmol 4-NH2-10-CH3PteGlu2 hydrolyzed/min/mg protein) ([1]; 200 μM 4-NH2-10-CH3PteGlu2 for 5 minutes, mean ± SD of 3 experiments)	hGH activity (in words) ([1]; purified E. coli-expressed proteins)	Activity relative to wildtype enzyme [2]	Activity on methotrexate polyglutamates [3]	hGH activity in SP cation exchange column fractions [4]	Activity on methotrexate tetraglutamate [3]	hGH activity (in words) [5]
B1	no activity	no activity	less than 0.01 % of wildtype enzyme	inactive	no fractions contained hGH activity	–	–
B2	–	–	–	–	–	inactive	lack of activity
